From article PMC5844954, “Insc:LGN tetramers promote asymmetric divisions of mammary stem cells” (Nature Communications, 2018)

T1: human Insc of the Insc:LGN:Gαi complex (human, UniProt Q1MX18-2 1-532)
T1 construct: human Inscuteable; Same chain as the Insc chain of m16
T1 sequence (looked up): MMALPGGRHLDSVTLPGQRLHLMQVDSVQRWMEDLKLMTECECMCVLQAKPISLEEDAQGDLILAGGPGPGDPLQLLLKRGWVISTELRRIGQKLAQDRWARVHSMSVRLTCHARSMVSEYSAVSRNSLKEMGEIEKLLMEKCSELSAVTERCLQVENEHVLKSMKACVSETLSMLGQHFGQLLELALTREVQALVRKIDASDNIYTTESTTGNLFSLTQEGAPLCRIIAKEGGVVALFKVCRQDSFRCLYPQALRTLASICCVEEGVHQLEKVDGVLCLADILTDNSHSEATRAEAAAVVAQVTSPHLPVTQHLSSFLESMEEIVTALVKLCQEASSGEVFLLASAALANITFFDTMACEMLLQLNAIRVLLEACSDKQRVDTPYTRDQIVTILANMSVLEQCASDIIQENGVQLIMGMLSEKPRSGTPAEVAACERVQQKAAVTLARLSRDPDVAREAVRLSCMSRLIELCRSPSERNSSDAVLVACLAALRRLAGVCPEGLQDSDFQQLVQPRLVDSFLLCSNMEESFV

T2: Drosophila LGN (Pins) TPR domain, residues 25-406 (Drosophila, UniProt Q9VB22 25-406)
T2 construct: Pins (fly orthologue of LGN), Drosophila, residues 25-406 (TPR domain); Monomeric in isolation; two copies stand in the 2:2 tetramer with Insc^ASYM; also called dLGN^TPR; dLGN^25–406
T2 sequence (looked up): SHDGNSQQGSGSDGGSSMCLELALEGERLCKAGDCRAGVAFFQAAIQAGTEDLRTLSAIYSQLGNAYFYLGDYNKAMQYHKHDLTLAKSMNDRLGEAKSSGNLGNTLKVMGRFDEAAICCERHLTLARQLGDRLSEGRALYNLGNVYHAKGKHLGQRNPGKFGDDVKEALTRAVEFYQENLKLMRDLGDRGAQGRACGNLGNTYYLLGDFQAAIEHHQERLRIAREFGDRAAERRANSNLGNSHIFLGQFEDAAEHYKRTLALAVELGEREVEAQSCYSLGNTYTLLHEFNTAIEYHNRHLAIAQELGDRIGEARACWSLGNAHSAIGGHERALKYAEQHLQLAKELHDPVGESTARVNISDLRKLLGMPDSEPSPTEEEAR


Key:
[1] = molecular target: T1, human Insc of the Insc:LGN:Gαi complex; assay: SEC; Par3^PDZ123 mixed in molar excess with purified Insc:LGN:Gαi, SDS-PAGE of fractions; details: both partners purified
[2] = molecular target: the molecule itself; assay: crystal structure; dLGN 25-406:Insc 283-623 complex, 3.4 Å, space group P212121, four tetramers in the asymmetric unit
[3] = molecular target: T2, Drosophila LGN (Pins) TPR domain, …; assay: SEC-MALS; static light scattering of the dLGN^TPR:Insc^ASYM complex eluting from a size-exclusion column; details: both partners purified

Binder | binding result [1] | binding result [2] | stoichiometry N [3]
human Par3^PDZ123 (residues 269-685), GST-tag removed (domain or fragment, UniProt Q8TEW0 269-685, looked up, human Par3, residues 269-685 (the three PDZ domains), Uniprot Q8TEW0) DDMVKLVEVPNDGGPLGIHVVPFSARGGRTLGLLVKRLEKGGKAEHENLFRENDCIVRINDGDLRNRRFEQAQHMFRQAMRTPIIWFHVVPAANKEQYEQLSQSEKNNYYSSRFSPDSQYIDNRSVNSAGLHTVQRAPRLNHPPEQIDSHSRLPHSAHPSGKPPSAPASAPQNVFSTTVSSGYNTKKIGKRLNIQLKKGTEGLGFSITSRDVTIGGSAPIYVKNILPRGAAIQDGRLKAGDRLIEVNGVDLVGKSQEEVVSLLRSTKMEGTVSLLVFRQEDAFHPRELNAEPSQMQIPKETKAEDEDIVLTPDGTREFLTFEVPLNDSGSAGLGVSVKGNRSKENHADLGIFVKSIINGGAASKDGRLRVNDQLIAVNGESLLGKTNQDAMETLRRSMSTEGNKRGMIQLIVARRIS | binds |  | 
Drosophila Inscuteable asymmetric domain, residues 283-623 (domain or fragment, UniProt Q24367 283-623, looked up, Inscuteable, Drosophila, residues 283-623 (asymmetric domain: Insc^PEPT stretch, four-helix bundle, three Armadillo repeats); Two copies stand in the 2:2 tetramer with dLGN^TPR; also called Insc^ASYM; Insc-A^ASYM) SLRFTASTSTPKSGSKIAKRGKKHPEPVASWMSEQRWAGEPEVMCTLQHKSIAQEAYKNYTITTSAVCKLVRQLQQQALSLQVHFERSERVLSGLQASSLPEALAGATQLLSHLDDFTATLERRGVFFNDAKIERRRYEQHLEQIRTVSKDTRYSLERQHYINLESLLDDVQLLKRHTLITLRLIFERLVRVLVISIEQSQCDLLLRANINMVATLMNIDYDGFRSLSDAFVQNEAVRTLLVVVLDHKQSSVRALALRALATLCCAPQAINQLGSCGGIEIVRDILQVESAGERGAIERREAVSLLAQITAAWHGSEHRVPGLRDCAESLVAGLAALLQPE |  | binds | 1 Insc per dLGN (2:2)
